{"source": "paper PMC9325726", "target": "T1, wild-type AM0627^A21-E506 (Akkermansia muciniphila) (UniProt B2UPI7)", "T1 sequence": "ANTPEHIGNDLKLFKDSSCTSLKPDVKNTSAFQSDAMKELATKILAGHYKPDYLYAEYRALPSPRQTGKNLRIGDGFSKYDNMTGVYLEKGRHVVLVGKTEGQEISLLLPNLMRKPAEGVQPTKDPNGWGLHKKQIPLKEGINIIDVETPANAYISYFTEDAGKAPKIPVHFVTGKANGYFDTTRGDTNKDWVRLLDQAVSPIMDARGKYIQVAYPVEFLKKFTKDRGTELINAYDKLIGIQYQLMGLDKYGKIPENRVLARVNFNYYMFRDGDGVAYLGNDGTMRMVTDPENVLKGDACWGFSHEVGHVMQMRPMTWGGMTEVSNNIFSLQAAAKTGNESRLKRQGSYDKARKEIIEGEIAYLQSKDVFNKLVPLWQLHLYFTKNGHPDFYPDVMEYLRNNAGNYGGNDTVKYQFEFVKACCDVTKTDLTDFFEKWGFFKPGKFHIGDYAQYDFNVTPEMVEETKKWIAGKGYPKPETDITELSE", "note": "Where no end group is shown, it is not given here. The star is where a group is joined. αGalNAc = CC(=O)N[C@@H]1[C@@H](O)[C@@H](O)[C@@H](CO)O[C@@H]1*"}
{"binder": "TEAQT(αGalNAc)T(αGalNAc)PPPA-NH2", "note": "[P2, bis-Tn glycopeptide]", "values": [{"measurement": "cleavage of P2 (500 μM) by 0.4 μM enzyme at 37 °C, MALDI-TOF time course, printed for 5 and 15 min", "value": 35, "unit": "%"}, {"measurement": "specific activity with P2 (500 μM), from the MALDI-TOF time course", "value": 1.2, "unit": "U/mg"}]}
